From article PMC3903436

Assays:
[1] = target: MUC16 (CA125), native, membrane-bound on cancer cells (human (endogenous in OVCAR3 and HeLa)) (UniProt Q8WXI7)
[2] = target: MUC16 (CA125), native, membrane-bound on cancer cells (human (endogenous in OVCAR3 and HeLa)) (UniProt Q8WXI7); remark: listed apart in the source
[3] = target: MUC16 (CA125), native, membrane-bound on cancer cells (human (endogenous in OVCAR3 and HeLa)) (UniProt Q8WXI7); test: flow cytometry on cells; OVCAR3 cells in suspension incubated with HEK293T-derived culture supernatant containing soluble mesothelin; bound mesothelin detected with anti-FLAG mAb M2 and FITC-conjugated secondary Ab; culture medium alone as negative control

Substance | reduction of the luciferase signal (tumor burden) of intraperitoneal OVCAR3 xenografts in NOD/SCID mice at 7 days of i.p. treatment with Meso-TR3 (control and TR3 groups did not respond) [1] | share of MUC16-positive cells in the HeLa cell pool after Meso-TR3 treatment, by flow cytometry (80% to 54%; non-targeted TR3 did not shift the ratio) [2] | percent of cells positive for bound mesothelin (FLAG epitope tag) [3]
Meso-TR3 (mesothelin-TR3 fusion protein) (from UniProt P50591 39-281; P50591 39-281; P50591 39-281) | 600 fold | > 30% | –
soluble mesothelin (FLAG tagged, GPI anchor-deleted mature form) (ligand) | – | – | 100%
